This assay deals with ubiquitin (monoUb), P0CG48. Put plainly: NMR titration; NZF domain added to 15N-labeled monoUb or diUb; BEST-TROSY, chemical shift perturbation; NMR PBS (18 mM Na2HPO4, 7 mM NaH2PO4 pH 7.2, 150 mM NaCl), 298 K.

For orientation: Kd means the equilibrium constant for the complex coming apart. RTQHWTCSVCTYENWAKAKRCVVCDHPRPN (domain or fragment, modifications not checked) [TRABID NZF3]: the Kd was found to be 540 µM.

Consider NANKWSCHMCTYLNWPRAIRCTQCLSQRRT (domain or fragment, modifications not checked) [TRABID NZF2], for which the Kd was 1000 µM.

The record behind these values is PMC4386031.
